Measurements published in patent US20230324389.

Chain of MMP9 (chain, as listed by the source): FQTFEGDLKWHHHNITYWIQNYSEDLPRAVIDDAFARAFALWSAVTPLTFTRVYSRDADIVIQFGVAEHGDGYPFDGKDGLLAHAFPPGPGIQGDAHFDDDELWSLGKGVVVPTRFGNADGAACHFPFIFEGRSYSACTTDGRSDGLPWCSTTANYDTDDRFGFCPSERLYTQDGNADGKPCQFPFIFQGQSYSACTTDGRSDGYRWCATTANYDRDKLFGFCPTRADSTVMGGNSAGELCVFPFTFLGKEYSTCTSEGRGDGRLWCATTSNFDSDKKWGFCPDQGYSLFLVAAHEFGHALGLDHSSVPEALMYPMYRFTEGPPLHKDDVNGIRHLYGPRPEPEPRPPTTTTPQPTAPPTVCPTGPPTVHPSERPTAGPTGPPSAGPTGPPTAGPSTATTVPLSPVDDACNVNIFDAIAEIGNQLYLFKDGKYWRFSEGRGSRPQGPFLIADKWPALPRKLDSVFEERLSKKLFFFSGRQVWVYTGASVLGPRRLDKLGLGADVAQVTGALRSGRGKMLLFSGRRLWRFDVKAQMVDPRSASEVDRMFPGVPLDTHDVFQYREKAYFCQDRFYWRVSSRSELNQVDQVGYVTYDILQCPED

| Substance | unmasking (protease cleavage) rate (818-P1) | unmasking (protease cleavage) rate (818-C1MA) | unmasking (protease cleavage) rate (818-C1 MB) | unmasking (protease cleavage) activity (818-P1) | unmasking (protease cleavage) activity (818-C1MA) | unmasking (protease cleavage) activity (818-C1 MB) |
| --- | --- | --- | --- | --- | --- | --- |
| MMP9 | MMP9: 818-P1>818-C1 MB>818-C1MA | MMP9: 818-P1>818-C1 MB>818-C1MA | MMP9: 818-P1>818-C1 MB>818-C1MA | – | – | – |
| Urokinase-type Plasminogen Activator (uPA) | – | – | – | Unmasking activity attributable to uPA required higher concentrations of proteases and longer digestion times | Unmasking activity attributable to uPA required higher concentrations of proteases and longer digestion times | Unmasking activity attributable to uPA required higher concentrations of proteases and longer digestion times |
